Test results published in US20170281749A1.

Key:
[1] = biological target: CH505TF gp120 GCN4 Trimer; experiment: SPR
CH505TF gp140 Trimer = experiment: SPR

Substance	Kd [1]	Kd (CH505TF gp140 Trimer)
CH01 (V1-V2)	> 100000 nM	–
VRC01 (CD4 bs)	2.5 nM	2.4 nM
CH106 (CD4 bs)	5.5 nM	5.81 nM
CH58 (V2)	104 nM	60.5 nM
697 D (V2)	554 nM	170 nM
A32 (C1)	2.9 nM	3 nM
PG9 (V1-V2)	159 nM	69.2 nM
F105 (CD4 bs)	40.7 nM	24.9 nM
19b (V3)	0.8 nM	1.2 nM
2G12 (-CHO)	169 nM	6.5 nM
CH103_UCA (CD4 bs)	14.6 nM	36.1 nM
PGT128 (-CHO)	53 nM	20.3 nM
